Reference: US20240400641A1 (EMORY UNIVERSITY, published 2024)
Where no end group is shown, it is not given here.

Target: T1, mouse PD-L1 (mouse, UniProt Q9EP73 19-290)
T1 construct: whole, on cells; Endogenous protein of mouse tumor cell lines; also called PD-L1 on mouse pancreatic cancer KC, Panc02 and KPC cells
Assay: peptide-IONP conjugates on KC and Panc02 cells, Prussian blue staining

T1 sequence (Q9EP73 19-290): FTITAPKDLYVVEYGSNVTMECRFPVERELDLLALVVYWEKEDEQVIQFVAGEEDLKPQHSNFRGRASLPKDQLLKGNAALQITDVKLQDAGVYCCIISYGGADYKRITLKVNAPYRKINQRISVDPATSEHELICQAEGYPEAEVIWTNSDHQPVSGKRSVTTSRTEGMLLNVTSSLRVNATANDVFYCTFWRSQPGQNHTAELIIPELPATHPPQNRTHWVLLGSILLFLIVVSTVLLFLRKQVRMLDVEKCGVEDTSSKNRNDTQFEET

| binding result | Binder |
| --- | --- |
| binds | NWNRLSPSNQTEKQAACGAISLHPKAKIEESPGHHHH (also: FITC label in competition assay, place not given here, bound via His tag to NTA-Cu on IONPs or NTA-Ni beads, Tested as FITC-labelled free peptide, as IONP conjugate and on NTA-Ni beads; also called PD-1 like peptide; PD-1 Lin-IONP (when conjugated to iron oxide nanoparticles)) [PD-1 (Lin) peptide] |
| binds | NWNRLSPSNQTEKQAAPHHHHCGAISLHPKAKIEE (not fully specified; also: FITC label in competition assay, place not given here, also called PDIY; PD-1 like peptide) [PD-1 (Y) peptide] |
